Results reported in paper PMC9499943 (Nature Communications, 2022).

B1: CoV2-14 (antibody, V domains shown)
VH: EVQLQQSGPGLVKPSQTLSLTCAISGDSVSSNSAAWNWIRQSPSRGLEWLGRTYYRSKWYNDYAVSVKSRITINPDTSKNQFSLQLNSVTPEDTAVYYCAREEQQLVHDYYYYGMDVWGQGTMVTVSS
VL: QAVVTQPASVSGSPGQSITISCTGTSSDIGAYNYISWYQQHPGKAPKLIIYEVSNRPSGISYRFSGSKSGNTASLTISGLQAEDEANYYCSSYAGSISFGGGTKVTVL
B2: CoV2-14 (antibody, V domains shown)
VH: EVQLQQSGPGLVKPSQTLSLTCAISGDSVSSNSAAWNWIRQSPSRGLEWLGRTYYRSKWYNDYAVSVKSRITINPDTSKNQFSLQLNSVTPEDTAVYYCAREEQQLVHDYYYYGMDVWGQGTMVTVSS
VL: QAVVTQPASVSGSPGQSITISCTGTSSDIGAYNYISWYQQHPGKAPKLIIYEVSNRPSGISYRFSGSKSGNTASLTISGLQAEDEANYYCSSYAGSISFGGGTKVTVL
B3: CoV2-06 (antibody, V domains shown)
VH: QVELQESGPGLVKPSGTLSLTCAVSGGSISSNNWWTWVRQPPGKGLEWIGEIHHSGGTNYNPSLKSRVTMSVDKSKNQFSLNLYSVTAADTAVYYCTRDRAGGTYSGFDFWGQGTLVTVSS
VL: QAVVTQPASVSGSPGQSITISCTGTSSDVGGYNYVSWYQQHPGKAPKLMIYDVSNRPSGVSNRFSGSKSGNTASLTISGLQAEDEADYYCSSYTSSSTVVFGGGTKVTVL
B4: CoV2-06 (antibody, V domains shown)
VH: QVELQESGPGLVKPSGTLSLTCAVSGGSISSNNWWTWVRQPPGKGLEWIGEIHHSGGTNYNPSLKSRVTMSVDKSKNQFSLNLYSVTAADTAVYYCTRDRAGGTYSGFDFWGQGTLVTVSS
VL: QAVVTQPASVSGSPGQSITISCTGTSSDVGGYNYVSWYQQHPGKAPKLMIYDVSNRPSGVSNRFSGSKSGNTASLTISGLQAEDEADYYCSSYTSSSTVVFGGGTKVTVL

Legend:
Assay in all cases: BLI
Details in all cases: both partners purified
[1] = molecular target: His-tagged RBD (RBD-His) protein of SARS-CoV-2 (SARS-CoV-2, wild type (Wuhan-Hu-1 …, UniProt P0DTC2))
[2] = molecular target: Fc-tagged wild-type RBD (RBD-Fc) (SARS-CoV-2, UniProt P0DTC2)
[3] = molecular target: His-tagged RBD (RBD-His) protein of SARS-CoV-2 (SARS-CoV-2, wild type (Wuhan-Hu-1 …, UniProt P0DTC2)); remark: listed apart in the source

Row | Binder | Kd [1] [nM] | koff [1] [s⁻¹] | kon [1] [M⁻¹ s⁻¹] | IC50 [2] [nM] | other [3] [fold]
1 | B1 | 1.18 | 0.000895 | 761000 | – | –
2 | B2 | – | – | – | 10.6 | 2
3 | B3 | 4.14 | 0.000695 | 168000 | – | –
4 | B4 | – | – | – | 39.8 | 46
